Data from publication PMC5441850, “Waxy and non-waxy barley cultivars exhibit differences in the targeting and catalytic activity of GBSS1a” (Journal of Experimental Botany, 2017).

B1: HvGBSSIa (Hordeum vulgare; D287V/I559V/M558V) (protein)
chain: SATGSGMNLVFVGAEMAPWSKTGGLGDVLGGLPPAMAANGHRVMVVSPRYDQYKDAWDTSVISEIKVADEYERVRFFHCYKRGVDRVFIDHPWFLEKVRGKTKEKIYGPDAGTDYEDNQQRFSLLCQAALEAPRILNLNNNPYFSGPYGEDVVFVCNDWHTGLLACYLKSNYQSNGIYRTAKVAFCIHNISYQGRFSFDDFAQLNLPDRFKSSFDFIVGYDKPVEGRKINWMKAGILQADKVLTVSPYYAEELISGEARGCELDNIMRLTGITGIVNGMDVSEWDPTKDKFLAVNYDITTALEAKALNKEALQAEVGLPVDRKVPLVAFIGRLEEQKGPDVMIAAIPEILKEEDVQIILLGTGKKKFEKLLKSMEEKFPGKVRAVVRFNAPLAHQMMAGADLLAVTSRFEPCGLIQLQGMRYGTPCVCASTGGLVDTIVEGKTGFHMGRLSVDCNVVEPADVKKVATTLKRAVKVVGTPAYQEMVKNCVVQDLSWKGPAKNWEDVLLELGVEGSEPGIVGEEIAPLAMENVAAP
notes: initial 69 residues (plastid transit peptide) removed; codon-optimized, pET28a 6xHis tag; E. coli Tuner(DE3); HisTrap and Superdex75; mature size 59 kDa; CDC Alamo allele entry AF486519
B2: HvGBSSIa (Hordeum vulgare; I559V/M558V) (protein)
chain: SATGSGMNLVFVGAEMAPWSKTGGLGDVLGGLPPAMAANGHRVMVVSPRYDQYKDAWDTSVISEIKVADEYERVRFFHCYKRGVDRVFIDHPWFLEKVRGKTKEKIYGPDAGTDYEDNQQRFSLLCQAALEAPRILNLNNNPYFSGPYGEDVVFVCNDWHTGLLACYLKSNYQSNGIYRTAKVAFCIHNISYQGRFSFDDFAQLNLPDRFKSSFDFIDGYDKPVEGRKINWMKAGILQADKVLTVSPYYAEELISGEARGCELDNIMRLTGITGIVNGMDVSEWDPTKDKFLAVNYDITTALEAKALNKEALQAEVGLPVDRKVPLVAFIGRLEEQKGPDVMIAAIPEILKEEDVQIILLGTGKKKFEKLLKSMEEKFPGKVRAVVRFNAPLAHQMMAGADLLAVTSRFEPCGLIQLQGMRYGTPCVCASTGGLVDTIVEGKTGFHMGRLSVDCNVVEPADVKKVATTLKRAVKVVGTPAYQEMVKNCVVQDLSWKGPAKNWEDVLLELGVEGSEPGIVGEEIAPLAMENVAAP
notes: as for B1
B3: HvGBSSIa (Hordeum vulgare) (protein)
chain: SATGSGMNLVFVGAEMAPWSKTGGLGDVLGGLPPAMAANGHRVMVVSPRYDQYKDAWDTSVISEIKVADEYERVRFFHCYKRGVDRVFIDHPWFLEKVRGKTKEKIYGPDAGTDYEDNQQRFSLLCQAALEAPRILNLNNNPYFSGPYGEDVVFVCNDWHTGLLACYLKSNYQSNGIYRTAKVAFCIHNISYQGRFSFDDFAQLNLPDRFKSSFDFIDGYDKPVEGRKINWMKAGILQADKVLTVSPYYAEELISGEARGCELDNIMRLTGITGIVNGMDVSEWDPTKDKFLAVNYDITTALEAKALNKEALQAEVGLPVDRKVPLVAFIGRLEEQKGPDVMIAAIPEILKEEDVQIILLGTGKKKFEKLLKSMEEKFPGKVRAVVRFNAPLAHQMMAGADLLAVTSRFEPCGLIQLQGMRYGTPCVCASTGGLVDTIVEGKTGFHMGRLSVDCNVVEPADVKKVATTLKRAVKVVGTPAYQEMVKNCMIQDLSWKGPAKNWEDVLLELGVEGSEPGIVGEEIAPLAMENVAAP
notes: as for B1
B4: HvGBSSIa (Hordeum vulgare; M558V) (protein)
chain: SATGSGMNLVFVGAEMAPWSKTGGLGDVLGGLPPAMAANGHRVMVVSPRYDQYKDAWDTSVISEIKVADEYERVRFFHCYKRGVDRVFIDHPWFLEKVRGKTKEKIYGPDAGTDYEDNQQRFSLLCQAALEAPRILNLNNNPYFSGPYGEDVVFVCNDWHTGLLACYLKSNYQSNGIYRTAKVAFCIHNISYQGRFSFDDFAQLNLPDRFKSSFDFIDGYDKPVEGRKINWMKAGILQADKVLTVSPYYAEELISGEARGCELDNIMRLTGITGIVNGMDVSEWDPTKDKFLAVNYDITTALEAKALNKEALQAEVGLPVDRKVPLVAFIGRLEEQKGPDVMIAAIPEILKEEDVQIILLGTGKKKFEKLLKSMEEKFPGKVRAVVRFNAPLAHQMMAGADLLAVTSRFEPCGLIQLQGMRYGTPCVCASTGGLVDTIVEGKTGFHMGRLSVDCNVVEPADVKKVATTLKRAVKVVGTPAYQEMVKNCVIQDLSWKGPAKNWEDVLLELGVEGSEPGIVGEEIAPLAMENVAAP
notes: as for B1
B5: HvGBSSIa (Hordeum vulgare; I559V) (protein)
chain: SATGSGMNLVFVGAEMAPWSKTGGLGDVLGGLPPAMAANGHRVMVVSPRYDQYKDAWDTSVISEIKVADEYERVRFFHCYKRGVDRVFIDHPWFLEKVRGKTKEKIYGPDAGTDYEDNQQRFSLLCQAALEAPRILNLNNNPYFSGPYGEDVVFVCNDWHTGLLACYLKSNYQSNGIYRTAKVAFCIHNISYQGRFSFDDFAQLNLPDRFKSSFDFIDGYDKPVEGRKINWMKAGILQADKVLTVSPYYAEELISGEARGCELDNIMRLTGITGIVNGMDVSEWDPTKDKFLAVNYDITTALEAKALNKEALQAEVGLPVDRKVPLVAFIGRLEEQKGPDVMIAAIPEILKEEDVQIILLGTGKKKFEKLLKSMEEKFPGKVRAVVRFNAPLAHQMMAGADLLAVTSRFEPCGLIQLQGMRYGTPCVCASTGGLVDTIVEGKTGFHMGRLSVDCNVVEPADVKKVATTLKRAVKVVGTPAYQEMVKNCMVQDLSWKGPAKNWEDVLLELGVEGSEPGIVGEEIAPLAMENVAAP
notes: as for B1
B6: HvGBSSIa (Hordeum vulgare; D287V) (protein)
chain: SATGSGMNLVFVGAEMAPWSKTGGLGDVLGGLPPAMAANGHRVMVVSPRYDQYKDAWDTSVISEIKVADEYERVRFFHCYKRGVDRVFIDHPWFLEKVRGKTKEKIYGPDAGTDYEDNQQRFSLLCQAALEAPRILNLNNNPYFSGPYGEDVVFVCNDWHTGLLACYLKSNYQSNGIYRTAKVAFCIHNISYQGRFSFDDFAQLNLPDRFKSSFDFIVGYDKPVEGRKINWMKAGILQADKVLTVSPYYAEELISGEARGCELDNIMRLTGITGIVNGMDVSEWDPTKDKFLAVNYDITTALEAKALNKEALQAEVGLPVDRKVPLVAFIGRLEEQKGPDVMIAAIPEILKEEDVQIILLGTGKKKFEKLLKSMEEKFPGKVRAVVRFNAPLAHQMMAGADLLAVTSRFEPCGLIQLQGMRYGTPCVCASTGGLVDTIVEGKTGFHMGRLSVDCNVVEPADVKKVATTLKRAVKVVGTPAYQEMVKNCMIQDLSWKGPAKNWEDVLLELGVEGSEPGIVGEEIAPLAMENVAAP
notes: as for B1

Each protein was assayed on Nc1ncnc2c1ncn2[C@@H]1O[C@H](COP(=O)(O)OP(=O)(O)O[C@H]2O[C@H](CO)[C@@H](O)[C@H](O)[C@H]2O)[C@@H](O)[C@H]1O (assay: purified protein). Details: rabbit liver glycogen 1 mg/ml as acceptor, 50 mM Bicine pH 8.5, 25 mM potassium acetate, 2 mM MgCl2, 10 mM DTT, 37 °C.
Format: biochemical, Hordeum vulgare

In order of rising Km:
1. B1  51 ± 10 µM
2. B2  56 ± 8 µM
3. B4  71 ± 7 µM
4. B5  114 ± 15 µM
5. B6  127 ± 9 µM
6. B3  160 ± 15 µM

In order of falling kcat:
1. B4  0.353 ± 0.01 s⁻¹
2. B5  0.112 ± 0.005 s⁻¹
3. B3  0.0967 ± 0.0033 s⁻¹
4. B6  0.046 ± 0.001 s⁻¹
5. B2  0.0157 ± 0.00067 s⁻¹
6. B1  0.00933 ± 0.0005 s⁻¹
